In the Immune Epitope Database (IEDB):

Columns and labels:
HLA-A*26:01 [1] = assay: IEDB peptide-MHC binding, purified MHC/direct/fluorescence; filed as Kd, often an IC50 or EC50 that approximates it; ≥ and ≤ were set here for values at or beyond the usual limits of such assays
HLA-A*02:19 = assay: as above
HLA-A*02:16 = assay: as above
HLA-A*02:12 = assay: as above
HLA-A*02:03 = assay: as above
HLA-A*23:01 = assay: as above
HLA-A*03:01 = assay: as above
HLA-A*68:02 = assay: as above
HLA-A*02:11 = assay: as above
HLA-A*24:03 = assay: as above
HLA-B*27:03 = assay: IEDB peptide-MHC binding, purified MHC/competitive/fluorescence; filed as Kd, often an IC50 or EC50 that approximates it; ≥ and ≤ were set here for values at or beyond the usual limits of such assays
HLA-B*18:01 = assay: as above
HLA-A*69:01 [2] = assay: as above
HLA-B*39:01 = assay: as above
HLA-B*57:01 = assay: as above
HLA-B*46:01 = assay: as above
HLA-A*02:01 [3] = assay: as above
HLA-B*07:02 = assay: IEDB peptide-MHC binding, purified MHC/direct/fluorescence; filed as Kd, often an IC50 or EC50 that approximates it; ≥ and ≤ were set here for values at or beyond the usual limits of such assays
HLA-A*29:02 = assay: as above
HLA-A*26:01 [4] = assay: IEDB peptide-MHC binding, purified MHC/competitive/fluorescence; filed as Kd, often an IC50 or EC50 that approximates it; ≥ and ≤ were set here for values at or beyond the usual limits of such assays
HLA-B*51:01 = assay: as above
HLA-B*15:17 = assay: as above
HLA-B*15:01 [5] = assay: as above
HLA-B*35:01 = assay: as above; settings: source organism: Zaire ebolavirus
HLA-A*11:01 = assay: IEDB peptide-MHC binding, purified MHC/direct/fluorescence; filed as Kd, often an IC50 or EC50 that approximates it; ≥ and ≤ were set here for values at or beyond the usual limits of such assays
HLA-B*58:01 = assay: as above
HLA-B*08:01 = assay: as above
HLA-B*27:05 = assay: as above
HLA-A*69:01 [6] = assay: as above
HLA-B*15:01 [7] = assay: as above
HLA-A*31:01 [8] = assay: as above
HLA-B*40:01 = assay: as above
HLA-B*44:02 = assay: as above
HLA-A*01:01 = assay: as above
HLA-A*02:01 [9] = assay: as above
HLA-A*30:01 = assay: as above
HLA-A*31:01 [10] = assay: IEDB peptide-MHC binding, purified MHC/competitive/fluorescence; filed as Kd, often an IC50 or EC50 that approximates it; ≥ and ≤ were set here for values at or beyond the usual limits of such assays; settings: source organism: Orthohantavirus tulaense
[11] = source organism: Zaire ebolavirus
[12] = source organism: Ravn virus - Ravn, Kenya, 1987
[13] = source organism: Bacillus cereus NVH0597-99
[14] = source organism: Bacillus thuringiensis serovar israelensis ATCC 35646
[15] = source organism: Rickettsia conorii
[16] = source organism: Rickettsia sibirica
[17] = source organism: Campylobacter jejuni
[18] = source organism: Orthohantavirus tulaense
[19] = source organism: Vibrio vulnificus CMCP6
[20] = source organism: Vibrio vulnificus YJ016

ATAAATEAY
Kd (HLA-A*26:01 [1]; source organism: Sudan ebolavirus - Uganda (2000)): 0.216 µM | Kd (HLA-A*02:19; [11]): ≥ 20 µM | Kd (HLA-A*02:16; [11]): ≥ 20 µM | Kd (HLA-A*02:12; [11]): ≥ 20 µM | Kd (HLA-A*02:03; [11]): ≥ 20 µM | Kd (HLA-A*23:01; [11]): ≥ 20 µM | Kd (HLA-A*03:01; [11]): ≥ 20000 nM | Kd (HLA-A*68:02; [11]): ≥ 20 µM | Kd (HLA-A*02:11; [11]): ≥ 20 µM | Kd (HLA-A*24:03; [11]): ≥ 20 µM | Kd (HLA-B*27:03; [11]): ≥ 20 µM | Kd (HLA-B*18:01; [11]): ≥ 20 µM | Kd (HLA-A*69:01 [2]; [11]): ≥ 20 µM | Kd (HLA-B*39:01; [11]): ≥ 20 µM | Kd (HLA-B*57:01; [11]): ≥ 20 µM | Kd (HLA-B*46:01; [11]): ≥ 20 µM | Kd (HLA-A*02:01 [3]; [11]): ≥ 20 µM

FPSNMMVVT
Kd (HLA-B*07:02; [11]): 0.751 µM | Kd (HLA-A*02:19; [12]): ≥ 20 µM | Kd (HLA-A*02:16; [12]): ≥ 20 µM | Kd (HLA-A*02:12; [12]): ≥ 20 µM | Kd (HLA-A*02:03; [12]): ≥ 20 µM | Kd (HLA-A*29:02; [12]): ≥ 20 µM | Kd (HLA-A*23:01; [12]): ≥ 20 µM | Kd (HLA-A*03:01; [12]): ≥ 20000 nM | Kd (HLA-A*68:02; [12]): ≥ 20 µM | Kd (HLA-A*02:11; [12]): ≥ 20 µM | Kd (HLA-A*24:03; [12]): ≥ 20 µM | Kd (HLA-A*26:01 [4]; [11]): ≥ 20 µM | Kd (HLA-B*27:03; [11]): ≥ 20 µM | Kd (HLA-B*51:01; [11]): ≥ 20 µM | Kd (HLA-B*18:01; [11]): ≥ 20 µM | Kd (HLA-B*15:17; [11]): ≥ 20 µM | Kd (HLA-A*69:01 [2]; [11]): ≥ 20 µM | Kd (HLA-B*15:01 [5]; [11]): ≥ 20 µM | Kd (HLA-B*39:01; [11]): ≥ 20 µM | Kd (HLA-B*57:01; [11]): ≥ 20 µM | Kd (HLA-B*46:01; [11]): ≥ 20 µM | Kd (HLA-A*02:01 [3]; [11]): ≥ 20 µM | Kd (HLA-B*35:01): 0.4 nM

ITMYVAFEQ
Kd (HLA-A*02:19; [13]): ≥ 20 µM | Kd (HLA-A*02:16; [13]): ≥ 20 µM | Kd (HLA-A*02:12; [13]): ≥ 20 µM | Kd (HLA-A*02:03; [13]): ≥ 20 µM | Kd (HLA-A*29:02; [13]): ≥ 20 µM | Kd (HLA-A*23:01; [13]): ≥ 20 µM | Kd (HLA-A*03:01; [13]): ≥ 20000 nM | Kd (HLA-A*68:02; [13]): ≥ 20 µM | Kd (HLA-A*02:11; [13]): ≥ 20 µM | Kd (HLA-A*11:01; [13]): ≥ 20000 nM | Kd (HLA-A*24:03; [13]): ≥ 20 µM | Kd (HLA-A*26:01 [4]; [14]): ≥ 20 µM | Kd (HLA-B*27:03; [14]): ≥ 20 µM | Kd (HLA-B*51:01; [14]): ≥ 20 µM | Kd (HLA-B*18:01; [14]): ≥ 20 µM | Kd (HLA-B*15:17; [14]): ≥ 20 µM | Kd (HLA-A*69:01 [2]; [14]): ≥ 20 µM | Kd (HLA-B*39:01; [14]): ≥ 20 µM | Kd (HLA-B*57:01; [14]): ≥ 20 µM | Kd (HLA-B*46:01; [14]): ≥ 20 µM | Kd (HLA-A*02:01 [3]; [14]): ≥ 20 µM

RTGDIGCFK
Kd (HLA-B*07:02; [15]): ≥ 20 µM | Kd (HLA-A*26:01 [1]; [15]): ≥ 20 µM | Kd (HLA-B*58:01; [15]): ≥ 20 µM | Kd (HLA-B*08:01; [15]): ≥ 20 µM | Kd (HLA-B*27:05; [15]): ≥ 20 µM | Kd (HLA-A*69:01 [6]; [15]): ≥ 20 µM | Kd (HLA-B*15:01 [7]; [15]): ≥ 20 µM | Kd (HLA-A*31:01 [8]; [16]): 223 nM | Kd (HLA-A*03:01; [16]): 836 nM | Kd (HLA-B*40:01; [15]): ≥ 20 µM | Kd (HLA-B*44:02; [15]): ≥ 20 µM | Kd (HLA-A*01:01; [15]): ≥ 20 µM | Kd (HLA-A*02:01 [9]; [15]): ≥ 20 µM | Kd (HLA-A*30:01; [16]): 35.5 nM | Kd (HLA-A*11:01; [16]): 68.8 nM | Kd (HLA-A*24:03; [15]): ≥ 20 µM

SFGAGTLAK
Kd (HLA-B*07:02; [17]): ≥ 20 µM | Kd (HLA-A*26:01 [1]; [17]): ≥ 20 µM | Kd (HLA-B*58:01; [17]): ≥ 20 µM | Kd (HLA-B*08:01; [17]): ≥ 20 µM | Kd (HLA-B*27:05; [17]): ≥ 20 µM | Kd (HLA-A*69:01 [6]; [17]): ≥ 20 µM | Kd (HLA-B*15:01 [7]; [17]): ≥ 20 µM | Kd (HLA-A*31:01 [8]; [17]): 3900 nM | Kd (HLA-A*03:01; [17]): 1970 nM | Kd (HLA-B*40:01; [17]): ≥ 20 µM | Kd (HLA-B*44:02; [17]): ≥ 20 µM | Kd (HLA-A*01:01; [17]): ≥ 20 µM | Kd (HLA-A*02:01 [9]; [17]): ≥ 20 µM | Kd (HLA-A*30:01; [17]): 18.6 nM | Kd (HLA-A*11:01; [17]): 383 nM | Kd (HLA-A*24:03; [17]): ≥ 20 µM

SLMSRVVYK
Kd (HLA-A*02:19; [18]): ≥ 20 µM | Kd (HLA-A*02:16; [18]): ≥ 20 µM | Kd (HLA-A*02:12; [18]): ≥ 20 µM | Kd (HLA-A*02:03; [18]): ≥ 20 µM | Kd (HLA-A*29:02; [18]): ≥ 20 µM | Kd (HLA-A*23:01; [18]): ≥ 20 µM | Kd (HLA-A*03:01; source organism: Orthohantavirus prospectense): 77.2 nM | Kd (HLA-A*68:02; [18]): ≥ 20 µM | Kd (HLA-A*24:03; [18]): ≥ 20 µM | Kd (HLA-A*26:01 [4]; [18]): ≥ 20 µM | Kd (HLA-B*27:03; [18]): ≥ 20 µM | Kd (HLA-B*51:01; [18]): ≥ 20 µM | Kd (HLA-B*18:01; [18]): ≥ 20 µM | Kd (HLA-B*15:17; [18]): ≥ 20 µM | Kd (HLA-A*69:01 [2]; [18]): ≥ 20 µM | Kd (HLA-B*15:01 [5]; [18]): ≥ 20 µM | Kd (HLA-B*39:01; [18]): ≥ 20 µM | Kd (HLA-A*31:01 [10]): 3.1 nM | Kd (HLA-B*57:01; [18]): ≥ 20 µM | Kd (HLA-B*46:01; [18]): ≥ 20 µM

SVMSTFFWE
Kd (HLA-A*02:19; [19]): ≥ 20 µM | Kd (HLA-A*02:16; [19]): ≥ 20 µM | Kd (HLA-A*02:12; [19]): ≥ 20 µM | Kd (HLA-A*02:03; [19]): ≥ 20 µM | Kd (HLA-A*29:02; [19]): ≥ 20 µM | Kd (HLA-A*23:01; [19]): ≥ 20 µM | Kd (HLA-A*03:01; [19]): ≥ 20000 nM | Kd (HLA-A*68:02; [19]): ≥ 20 µM | Kd (HLA-A*02:11; [19]): ≥ 20 µM | Kd (HLA-A*11:01; [19]): 350 nM | Kd (HLA-A*24:03; [19]): ≥ 20 µM | Kd (HLA-A*26:01 [4]; [20]): ≥ 20 µM | Kd (HLA-B*27:03; [20]): ≥ 20 µM | Kd (HLA-B*51:01; [20]): ≥ 20 µM | Kd (HLA-B*18:01; [20]): ≥ 20 µM | Kd (HLA-B*15:17; [20]): ≥ 20 µM | Kd (HLA-A*69:01 [2]; [20]): ≥ 20 µM | Kd (HLA-B*39:01; [20]): ≥ 20 µM | Kd (HLA-B*57:01; [20]): ≥ 20 µM | Kd (HLA-B*46:01; [20]): ≥ 20 µM | Kd (HLA-A*02:01 [3]; [20]): ≥ 20 µM
